Data taken from article PMC9482650, “Quantitative fragmentomics allow affinity mapping of interactomes” (Nature Communications, 2022).

T1: APBA2_1, Q99767
T1 sequence (Q99767 563-664, limits assumed, looked up): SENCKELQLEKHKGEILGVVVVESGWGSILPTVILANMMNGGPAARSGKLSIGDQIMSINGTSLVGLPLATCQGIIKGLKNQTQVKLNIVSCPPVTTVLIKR

T2: DFNB31_3, Q9P202
T2 sequence (Q9P202 811-907, limits assumed, looked up): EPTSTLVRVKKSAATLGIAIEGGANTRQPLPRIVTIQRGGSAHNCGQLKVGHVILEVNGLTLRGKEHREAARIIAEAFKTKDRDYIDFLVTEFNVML

T3: DLG3_3, Q92796
T3 sequence (Q92796 374-475, limits assumed, looked up): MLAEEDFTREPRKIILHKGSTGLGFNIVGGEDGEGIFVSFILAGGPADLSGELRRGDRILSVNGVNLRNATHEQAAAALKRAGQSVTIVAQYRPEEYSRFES

T4: GRIP1_7, Q9Y3R0
T4 sequence (Q9Y3R0 999-1096, limits assumed, looked up): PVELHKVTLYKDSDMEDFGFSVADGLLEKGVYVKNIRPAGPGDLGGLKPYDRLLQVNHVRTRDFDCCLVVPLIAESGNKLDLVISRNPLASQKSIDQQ

T5: HTRA4, P83105
T5 sequence (P83105 378-476, limits assumed, looked up): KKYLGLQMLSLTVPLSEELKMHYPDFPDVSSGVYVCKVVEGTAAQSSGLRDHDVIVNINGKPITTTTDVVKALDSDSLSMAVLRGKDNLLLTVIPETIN

T6: NHERF3_1, Q5T2W1
T6 sequence (Q5T2W1 4-100, limits assumed, looked up): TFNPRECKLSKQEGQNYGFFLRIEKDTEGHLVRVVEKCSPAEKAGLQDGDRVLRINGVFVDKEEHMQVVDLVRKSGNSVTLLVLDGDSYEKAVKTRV

T7: PDZD2_2, O15018
T7 sequence (O15018 329-429, limits assumed, looked up): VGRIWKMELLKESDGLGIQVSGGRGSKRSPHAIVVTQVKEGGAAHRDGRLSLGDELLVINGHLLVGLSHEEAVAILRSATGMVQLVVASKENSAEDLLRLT

T8: TJP3_3, O95049
T8 sequence (O95049 375-456, limits assumed, looked up): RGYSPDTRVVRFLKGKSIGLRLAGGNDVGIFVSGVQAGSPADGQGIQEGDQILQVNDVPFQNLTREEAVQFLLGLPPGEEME


Tests used:
Test in all cases: holdup assay
Parameters in all cases: key: below the threshold = too weak to quantify, mostly under pKd 3.1 to 4
Conditions in all cases: plain residues with an end cap or a label only (N-terminal biotin on a linker: ahx)
APBA2_1, Q99767 = target: T1, APBA2_1, Q99767
DFNB31_3, Q9P202 = target: T2, DFNB31_3, Q9P202
DLG1_3, Q12959 = target: DLG1_3, Q12959
DLG1_3, Q12959, sequence (Q12959 457-571): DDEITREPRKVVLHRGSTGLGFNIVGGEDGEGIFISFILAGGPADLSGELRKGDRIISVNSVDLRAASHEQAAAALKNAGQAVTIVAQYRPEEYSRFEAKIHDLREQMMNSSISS

DLG2_2, Q15700 = target: DLG2_2, Q15700
DLG2_2, Q15700, sequence (Q15700 189-283): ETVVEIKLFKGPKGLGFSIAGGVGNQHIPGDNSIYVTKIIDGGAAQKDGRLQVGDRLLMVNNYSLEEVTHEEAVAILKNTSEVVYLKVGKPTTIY

DLG3_3, Q92796 = target: T3, DLG3_3, Q92796
DLG4_1, P78352 = target: DLG4_1, P78352
DLG4_1, P78352, sequence (P78352 62-152): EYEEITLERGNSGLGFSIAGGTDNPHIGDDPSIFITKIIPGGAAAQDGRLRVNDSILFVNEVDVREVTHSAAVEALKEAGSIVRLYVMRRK

DLG4_2, P78352 = target: DLG4_2, P78352
DLG4_2, P78352, sequence (P78352 155-259): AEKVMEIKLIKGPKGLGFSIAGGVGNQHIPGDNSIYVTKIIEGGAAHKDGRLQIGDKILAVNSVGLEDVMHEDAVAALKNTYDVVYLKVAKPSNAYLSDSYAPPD

DLG4_3, P78352 = target: DLG4_3, P78352
DLG4_3, P78352, sequence (P78352 306-403): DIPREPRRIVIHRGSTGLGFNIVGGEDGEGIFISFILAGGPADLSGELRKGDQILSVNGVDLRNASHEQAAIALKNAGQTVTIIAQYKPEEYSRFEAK

FRMPD2_1, Q68DX3 = target: FRMPD2_1, Q68DX3
FRMPD2_1, Q68DX3, sequence (Q68DX3 770-861): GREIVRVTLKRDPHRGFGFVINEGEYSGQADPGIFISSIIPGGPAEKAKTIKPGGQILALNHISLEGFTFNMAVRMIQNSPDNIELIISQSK

FRMPD4, Q14CM0 = target: FRMPD4, Q14CM0
FRMPD4, Q14CM0, sequence (Q14CM0 67-160): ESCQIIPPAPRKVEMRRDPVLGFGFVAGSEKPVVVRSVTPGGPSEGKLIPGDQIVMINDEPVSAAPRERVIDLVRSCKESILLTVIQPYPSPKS

GOPC, Q9HD26 = target: GOPC, Q9HD26
GORASP2, Q9H8Y8 = target: GORASP2, Q9H8Y8
GRIP1_7, Q9Y3R0 = target: T4, GRIP1_7, Q9Y3R0
GRIP2_3, Q9C0E4 = target: GRIP2_3, Q9C0E4
GRIP2_3, Q9C0E4, sequence (Q9C0E4 238-339): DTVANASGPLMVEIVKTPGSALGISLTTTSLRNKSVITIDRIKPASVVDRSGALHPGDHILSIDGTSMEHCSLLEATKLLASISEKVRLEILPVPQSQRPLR

HTRA4, P83105 = target: T5, HTRA4, P83105
Inadl_2, Q8NI35 = target: Inadl_2, Q8NI35
Inadl_2, Q8NI35, sequence (Q8NI35 238-335): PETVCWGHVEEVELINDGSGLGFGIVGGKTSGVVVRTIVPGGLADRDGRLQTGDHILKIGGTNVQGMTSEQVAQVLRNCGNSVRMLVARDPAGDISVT

Inadl_8, Q8NI35 = target: Inadl_8, Q8NI35
Inadl_8, Q8NI35, sequence (Q8NI35 1425-1530): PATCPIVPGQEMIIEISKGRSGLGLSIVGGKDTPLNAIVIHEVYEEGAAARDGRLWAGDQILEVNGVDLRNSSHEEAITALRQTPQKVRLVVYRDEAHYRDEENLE

LIMK2, P53671 = target: LIMK2, P53671
LIMK2, P53671, sequence (P53671 143-248): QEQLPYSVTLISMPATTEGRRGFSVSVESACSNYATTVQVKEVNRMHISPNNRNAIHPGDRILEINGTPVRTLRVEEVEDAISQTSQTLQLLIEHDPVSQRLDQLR

LNX1_1, Q8TBB1 = target: LNX1_1, Q8TBB1
LNX1_1, Q8TBB1, sequence (Q8TBB1 261-371): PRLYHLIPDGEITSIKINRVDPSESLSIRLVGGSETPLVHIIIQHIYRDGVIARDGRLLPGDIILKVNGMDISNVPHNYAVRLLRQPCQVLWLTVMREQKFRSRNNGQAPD

LNX1_3, Q8TBB1 = target: LNX1_3, Q8TBB1
LNX1_3, Q8TBB1, sequence (Q8TBB1 500-596): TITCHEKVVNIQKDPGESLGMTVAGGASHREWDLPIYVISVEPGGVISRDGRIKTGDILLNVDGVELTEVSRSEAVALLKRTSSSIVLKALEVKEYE

MAGI2_3, Q86UL8 = target: MAGI2_3, Q86UL8
MAGI2_3, Q86UL8, sequence (Q86UL8 600-682): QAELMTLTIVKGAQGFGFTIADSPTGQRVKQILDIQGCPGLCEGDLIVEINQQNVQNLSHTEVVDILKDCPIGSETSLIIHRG

MAGI2_5, Q86UL8 = target: MAGI2_5, Q86UL8
MAGI2_5, Q86UL8, sequence (Q86UL8 915-1017): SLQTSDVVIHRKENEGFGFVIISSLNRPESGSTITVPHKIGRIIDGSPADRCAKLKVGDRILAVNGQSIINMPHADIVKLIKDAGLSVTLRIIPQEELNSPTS

MAST2, Q6P0Q8 = target: MAST2, Q6P0Q8
MAST2, Q6P0Q8, sequence (Q6P0Q8 1099-1202): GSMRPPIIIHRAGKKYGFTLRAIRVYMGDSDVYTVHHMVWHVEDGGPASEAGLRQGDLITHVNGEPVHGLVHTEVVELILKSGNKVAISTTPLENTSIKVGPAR

NHERF3_1, Q5T2W1 = target: T6, NHERF3_1, Q5T2W1
NHERF4_1, Q86UT5-2 = target: NHERF4_1, Q86UT5-2
NHERF4_1, Q86UT5-2, sequence (Q86UT5 other isoform, or with tags, fused parts or gaps): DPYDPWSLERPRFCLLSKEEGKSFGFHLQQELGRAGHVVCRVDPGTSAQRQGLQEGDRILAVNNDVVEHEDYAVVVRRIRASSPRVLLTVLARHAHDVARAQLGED

NHERF4_4, Q86UT5 = target: NHERF4_4, Q86UT5
NHERF4_4, Q86UT5, sequence (Q86UT5 464-550): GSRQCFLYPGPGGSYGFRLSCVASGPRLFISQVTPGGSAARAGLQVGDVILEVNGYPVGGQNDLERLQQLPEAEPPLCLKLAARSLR

PDZD2_2, O15018 = target: T7, PDZD2_2, O15018
SCRIB_1, Q14160 = target: SCRIB_1, Q14160
SCRIB_1, Q14160, sequence (Q14160 718-814): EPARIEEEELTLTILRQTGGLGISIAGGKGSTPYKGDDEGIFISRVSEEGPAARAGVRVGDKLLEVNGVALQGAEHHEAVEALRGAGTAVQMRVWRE

SCRIB_2, Q14160 = target: SCRIB_2, Q14160
SCRIB_2, Q14160, sequence (Q14160 857-960): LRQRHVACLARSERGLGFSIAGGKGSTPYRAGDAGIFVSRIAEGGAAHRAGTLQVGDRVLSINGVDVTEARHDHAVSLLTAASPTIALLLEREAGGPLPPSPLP

SNX27, Q96L92 = target: SNX27, Q96L92
TJP3_3, O95049 = target: T8, TJP3_3, O95049

Binder	pKd (APBA2_1, Q99767)	pKd (DFNB31_3, Q9P202)	pKd (DLG1_3, Q12959)	pKd (DLG2_2, Q15700)	pKd (DLG3_3, Q92796)	pKd (DLG4_1, P78352)	pKd (DLG4_2, P78352)	pKd (DLG4_3, P78352)	pKd (FRMPD2_1, Q68DX3)	pKd (FRMPD4, Q14CM0)	pKd (GOPC, Q9HD26)	pKd (GORASP2, Q9H8Y8)	pKd (GRIP1_7, Q9Y3R0)	pKd (GRIP2_3, Q9C0E4)	pKd (HTRA4, P83105)	pKd (Inadl_2, Q8NI35)	pKd (Inadl_8, Q8NI35)	pKd (LIMK2, P53671)	pKd (LNX1_1, Q8TBB1)	pKd (LNX1_3, Q8TBB1)	also measured
SDSSGQEYSL [KCTD3, Q9Y597]	below the threshold	below the threshold	below the threshold	below the threshold	below the threshold	below the threshold	below the threshold	below the threshold	below the threshold	4.69	below the threshold	below the threshold	below the threshold	below the threshold	below the threshold	below the threshold	below the threshold	below the threshold	below the threshold	below the threshold	pKd (MAGI2_3, Q86UL8): below the threshold; pKd (MAGI2_5, Q86UL8): below the threshold; pKd (MAST2, Q6P0Q8): 4.53; pKd (NHERF3_1, Q5T2W1): 3.8; pKd (NHERF4_1, Q86UT5-2): below the threshold; pKd (NHERF4_4, Q86UT5): below the threshold; pKd (PDZD2_2, O15018): below the threshold; pKd (SCRIB_1, Q14160): below the threshold; pKd (SCRIB_2, Q14160): below the threshold; pKd (SNX27, Q96L92): below the threshold; pKd (TJP3_3, O95049): below the threshold
ESLLLGPSNF [SHROOM4, Q9ULL8]	below the threshold	below the threshold	below the threshold	below the threshold	below the threshold	below the threshold	below the threshold	below the threshold	below the threshold	below the threshold	below the threshold	below the threshold	below the threshold	below the threshold	below the threshold	below the threshold	3.57	below the threshold	below the threshold	below the threshold	pKd (MAGI2_3, Q86UL8): below the threshold; pKd (MAGI2_5, Q86UL8): below the threshold; pKd (MAST2, Q6P0Q8): below the threshold; pKd (NHERF3_1, Q5T2W1): below the threshold; pKd (NHERF4_1, Q86UT5-2): below the threshold; pKd (NHERF4_4, Q86UT5): below the threshold; pKd (PDZD2_2, O15018): below the threshold; pKd (SCRIB_1, Q14160): below the threshold; pKd (SCRIB_2, Q14160): below the threshold; pKd (SNX27, Q96L92): below the threshold; pKd (TJP3_3, O95049): below the threshold
